Results: US20040161419A1, “Placental stem cells and uses thereof” (priority 2002, published 2004)

B1: FGF 4: fibroblast growth factor 4, media supplement (protein, UniProt P08620 31-206, looked up)
Fibroblast growth factor 4: APTAPNGTLEAELERRWESLVALSLARLPVAAQPKEAAVQSGAGDYLLGIKRLRRLYCNVGIGFHLQALPDGRIGGAHADTRDSLLELSPVERGVVSIFGVASRFFVAMSSKGKLYGSPFFTDECTFKEILLPNNYNAYESYKYPGMFIALSKNGKTKKGNRVSPTMKVTHFLPRL
B2: FGF 7: fibroblast growth factor 7, media supplement (protein, UniProt P21781 32-194, looked up)
Fibroblast growth factor 7: CNDMTPEQMATNVNCSSPERHTRSYDYMEGGDIRVRRLFCRTQWYLRIDKRGKVKGTQEMKNNYNIMEIRTVAVGIVAIKGVESEFYLAMNKEGKLYAKKECNEDCNFKELILENHYNTYASAKWTHNGGEMFVALNQKGIPVRGKKTKKEQKTAHFLPMAIT
B3: EGF: epidermal growth factor, media supplement (protein, UniProt P01133 23-1207, looked up)
Pro-epidermal growth factor: PQHWSCPEGTLAGNGNSTCVGPAPFLIFSHGNSIFRIDTEGTNYEQLVVDAGVSVIMDFHYNEKRIYWVDLERQLLQRVFLNGSRQERVCNIEKNVSGMAINWINEEVIWSNQQEGIITVTDMKGNNSHILLSALKYPANVAVDPVERFIFWSSEVAGSLYRADLDGVGVKALLETSEKITAVSLDVLDKRLFWIQYNREGSNSLICSCDYDGGSVHISKHPTQHNLFAMSLFGDRIFYSTWKMKTIWIANKHTGKDMVRINLHSSFVPLGELKVVHPLAQPKAEDDTWEPEQKLCKLRKGNCSSTVCGQDLQSHLCMCAEGYALSRDRKYCEDVNECAFWNHGCTLGCKNTPGSYYCTCPVGFVLLPDGKRCHQLVSCPRNVSECSHDCVLTSEGPLCFCPEGSVLERDGKTCSGCSSPDNGGCSQLCVPLSPVSWECDCFPGYDLQLDEKSCAASGPQPFLLFANSQDIRHMHFDGTDYGTLLSQQMGMVYALDHDPVENKIYFAHTALKWIERANMDGSQRERLIEEGVDVPEGLAVDWIGRRFYWTDRGKSLIGRSDLNGKRSKIITKENISQPRGIAVHPMAKRLFWTDTGINPRIESSSLQGLGRLVIASSDLIWPSGITIDFLTDKLYWCDAKQSVIEMANLDGSKRRRLTQNDVGHPFAVAVFEDYVWFSDWAMPSVMRVNKRTGKDRVRLQGSMLKPSSLVVVHPLAKPGADPCLYQNGGCEHICKKRLGTAWCSCREGFMKASDGKTCLALDGHQLLAGGEVDLKNQVTPLDILSKTRVSEDNITESQHMLVAEIMVSDQDDCAPVGCSMYARCISEGEDATCQCLKGFAGDGKLCSDIDECEMGVPVCPPASSKCINTEGGYVCRCSEGYQGDGIHCLDIDECQLGEHSCGENASCTNTEGGYTCMCAGRLSEPGLICPDSTPPPHLREDDHHYSVRNSDSECPLSHDGYCLHDGVCMYIEALDKYACNCVVGYIGERCQYRDLKWWELRHAGHGQQQKVIVVAVCVVVLVMLLLLSLWGAHYYRTQKLLSKNPKNPYEESSRDVRSRRPADTEDGMSSCPQPWFVVIKEHQDLKNGGQPVAGEDGQAADGSMQPTSWRQEPQLCGMGTEQGCWIPVSSDKGSCPQVMERSFHMPSYGTQTLEGGVEKPHSLLSANPLWQQRALDPPHQMELTQ
modifications: Pro-epidermal growth factor
notes: epidermal growth factor, media supplement

Experiments:
placental stem cells [1] = tested on: placental stem cells
Experimental: The cells were cultured for either 7-10 days or until the cultures grew to confluence. The cells were trypsinized and reseeded in 6 well plates. The cells were subjected to different culture conditions, having varying growth factors supplementing the DMEM or MEM based medium. […] Placental stem cells were cultured for an additional 14 days. At the end of 14 days, the cells were evaluated for the expression of human albumin, CYP3A4, A1AT, or C/EBP-alpha.

placental stem cells [2] = assay: Culture in the presence or absence of EGF (growth curve); format: cell-based, human; details: EGF 10 ng/ml versus absence of EGF
Experimental: A human placenta was obtained from an uncomplicated elective caesarean section. The whole placenta was placed in a sterilized 1000 ml cup and washed with Hank's Balanced Salt Solution (HBSS) containing penicillin G (100 U/ml), streptomycin (100 μg/ml), and amphotericin B (0.25 μg/ml). The umbilical cord was cut and the whole placenta was cut in half at the point of attachment of the umbilical cord. The amnion layer was peeled from the underlying chorion layer of the placenta by gentle stripping with a sterile scalpel, starting from the cut edge (middle of the placental body) and working outward. The amnion was washed with HBSS (without antibiotics) and rinsed with 0.05% Trypsin-EDTA. 0.05% Trypsin-EDTA was added to approximately twice the volume of the tissue in a 50 cc Falcon tube and incubated at 37° C. for 20 min on shaker in a 5% CO2 incubator. The tissue is transferred to a new tube with 0.05% Trypsin-EDTA. Media was added to remaining supernatant in the tube to stop trypsinization and centrifuged at 800 rpm for 10 min at 4° C. The pellet was resuspended in DMEM, 10% FBS, 1 mM Sodium Pyruvate, EGF (10 ng/ml), penicillin G (100 U/ml), streptomycin (100 μg/ml), and amphotericin B (0.25 μg/ml). The trysinization step was repeated up to a total of 3 times. The cells released by each trypsinization were plated separately or mixed in one tube after passing through a 100 μm cell strainer. […]

| Molecule | liver specific gene expression (albumin, CYP3A4, A1AT, C/EBP-alpha) (placental stem cells [1]) | proliferation of placental stem cells (placental stem cells [2]) | proliferation of placental stem cells (placental stem cells [2]; listed as Epidermal Growth Factor (EGF)) |
| --- | --- | --- | --- |
| B1 | did not enhance liver specific gene expression | – | – |
| B2 | did not enhance liver specific gene expression | – | – |
| B3 | enhance liver specific gene expression | proliferate robustly | grow significantly better |
